Reference: CN114805579A (UNIV ZHENGZHOU, dated 2022)

Tests used:
[1] = biological target: hACE2-ecto重组蛋白 (人ACE2胞外区, C端6×His标签) (human, UniProt Q9BYF1 18-740)
人ACE2 (293T-hACE2细胞表面) = 人ACE2 (293T-hACE2细胞表面) (human, UniProt Q9BYF1 18-805); test: cell-based or functional assay
人ACE2 (293T-hACE2细胞表面), sequence (Q9BYF1 18-805): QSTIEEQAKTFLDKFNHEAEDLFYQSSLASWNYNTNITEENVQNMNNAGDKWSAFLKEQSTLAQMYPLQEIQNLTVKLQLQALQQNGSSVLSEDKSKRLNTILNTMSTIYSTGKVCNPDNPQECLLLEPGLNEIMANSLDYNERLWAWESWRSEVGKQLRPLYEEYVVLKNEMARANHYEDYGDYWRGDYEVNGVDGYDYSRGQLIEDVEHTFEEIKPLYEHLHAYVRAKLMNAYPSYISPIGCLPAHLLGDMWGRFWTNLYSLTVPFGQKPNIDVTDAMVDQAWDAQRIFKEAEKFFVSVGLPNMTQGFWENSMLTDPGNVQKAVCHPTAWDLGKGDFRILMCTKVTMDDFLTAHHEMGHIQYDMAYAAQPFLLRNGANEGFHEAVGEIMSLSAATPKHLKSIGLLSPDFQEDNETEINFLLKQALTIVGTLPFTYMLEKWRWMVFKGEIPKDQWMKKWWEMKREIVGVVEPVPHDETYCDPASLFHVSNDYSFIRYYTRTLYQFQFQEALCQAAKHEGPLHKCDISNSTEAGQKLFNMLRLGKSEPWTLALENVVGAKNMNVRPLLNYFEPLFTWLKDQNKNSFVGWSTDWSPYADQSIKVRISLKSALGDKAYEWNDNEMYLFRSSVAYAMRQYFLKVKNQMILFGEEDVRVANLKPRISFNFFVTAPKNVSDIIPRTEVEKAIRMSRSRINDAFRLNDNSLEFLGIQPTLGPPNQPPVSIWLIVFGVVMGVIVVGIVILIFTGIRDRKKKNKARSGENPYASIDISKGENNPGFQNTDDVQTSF

hACE2-ecto重组蛋白 (人ACE2胞外区, C端6×His标签), sequence (Q9BYF1 other isoform, or with tags, fused parts or gaps): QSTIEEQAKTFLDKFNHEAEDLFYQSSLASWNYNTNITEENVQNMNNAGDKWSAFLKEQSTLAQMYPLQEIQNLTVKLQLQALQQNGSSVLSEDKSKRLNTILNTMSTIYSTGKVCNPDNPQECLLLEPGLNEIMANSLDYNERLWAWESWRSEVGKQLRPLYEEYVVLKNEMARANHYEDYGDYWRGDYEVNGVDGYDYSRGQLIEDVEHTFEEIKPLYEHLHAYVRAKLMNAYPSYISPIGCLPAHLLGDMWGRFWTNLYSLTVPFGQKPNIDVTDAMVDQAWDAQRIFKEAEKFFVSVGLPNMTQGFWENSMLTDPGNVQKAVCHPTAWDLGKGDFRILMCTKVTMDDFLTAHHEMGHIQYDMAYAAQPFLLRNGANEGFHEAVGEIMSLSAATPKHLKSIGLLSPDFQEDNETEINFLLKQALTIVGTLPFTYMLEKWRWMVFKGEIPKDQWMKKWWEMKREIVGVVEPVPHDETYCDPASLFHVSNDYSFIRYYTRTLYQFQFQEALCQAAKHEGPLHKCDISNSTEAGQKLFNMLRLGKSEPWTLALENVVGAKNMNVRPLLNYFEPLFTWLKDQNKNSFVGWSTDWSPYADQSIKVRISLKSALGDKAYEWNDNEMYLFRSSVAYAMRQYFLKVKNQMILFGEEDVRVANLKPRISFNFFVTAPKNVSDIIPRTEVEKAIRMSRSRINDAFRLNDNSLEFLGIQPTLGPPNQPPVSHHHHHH

B1: 抗人ACE2蛋白单克隆抗体2D6 (antibody, V domains shown)
VH: EVKLVESGGGLVQPGGSLRLSCATSGFTFTDYYMSWVRQPPGKALEWLGFIRNRPNDYTTEYSASVKGRFTISRDNSQSILYLQMNTLRAEDSATYYCARDRGLRQAMDYWGQGTSVTVSS
VL: QIVLTQSPAIMSASPGEKVTMTCTASSSVTYMHWYQQKSGTSPKRWIYDTSKLASGVPGRFSGSGSGTSYSLTISSMEAEDAATYFCQQWSFNPLTFGSGTKLEIK
EC50 [1]: 0.00841 µg/mL
假病毒阻断试验 IC50, SARS-CoV-2 Delta(B.1.617.2)假病毒感染293T-hACE2细胞 (荧光素酶活性) (人ACE2 (293T-hACE2细胞表面)): 0.346 µg/mL
假病毒阻断试验 IC50, SARS-CoV-2 Omicron(B.1.1.529)假病毒感染293T-hACE2细胞 (荧光素酶活性) (人ACE2 (293T-hACE2细胞表面)): 0.139 µg/mL
假病毒阻断试验 IC50, SARS-CoV-2野生型(Wuhan-1)假病毒感染293T-hACE2细胞 (荧光素酶活性) (人ACE2 (293T-hACE2细胞表面)): 0.164 µg/mL
